This test has as its target T1, MAGE-A4 (MA4-230) peptide on HLA-A*02:01 (human).
T1 peptide: GVYDGREHTV
Kind of test: multimer staining.

B1: MA4-230 H1 TCR (TCR, V domains shown)
Valpha: LAKTTQPISMDSYEGQEVNITCSHNNIATNDYITWYQQFPSQGPRFIIQGYKTKVTNEVASLFIPADRKSSTLSLPRVSLSDTAVYYCLVVEGNRDDKIIFGKGTRLHILP
Vbeta: NAGVTQTPKFRVLKTGQSMTLLCAQDMNHEYMYWYRQDPGMGLRLIHYSVGEGTTAKGEVPDGYNVSRLKKQNFLLGLESAAPSQTSVYFCASPPTPSSYNEQFFGPGTRLTVL
In the case of B1, the binding result was “recognises”.

The values above are taken from US20230190812A1 (published 2023).
